Molecular target: insulin receptor partially purified from CHO-IR cells (Chinese Hamster Ovary cells expressing high levels of insulin receptors of human origin) (human) (UniProt P06213)
Experiment: cell-based or functional assay

amount giving 50% inhibition of the tyrosine kinase activity of the receptors (32P incorporation into poly Glu-Tyr): 0.13 µg
B1: GST-mGrb10 (protein, mouse, UniProt Q60760 1-621, looked up, not shown: a dimerising Fc or GST)
chain: MNNDINSSVESLNSACNMQSDTDTAPLLEDGQHASNQGAASSSRGQPQASPRQKMQRSQPVHILRRLQEEDQQLRTASLPAIPNPFPELTGAAPGSPPSVAPSSLPPPPSQPPAKHCGRCEKWIPGENTRGNGKRKIWRWQFPPGFQLSKLTRPGLWTKTTARFSKKQPKNQCPTDTVNPVARMPTSQMEKLRLRKDVKVFSEDGTSKVVEILTDMTARDLCQLLVYKSHCVDDNSWTLVEHHPQLGLERCLEDHEIVVQVESTMPSESKFLFRKNYAKYEFFKNPVNFFPDQMVNWCQQSNGGQAQLLQNFLNTSSCPEIQGFLQVKEVGRKSWKKLYVCLRRSGLYYSTKGTSKEPRHLQLLADLEESSIFYLIAGKKQYNAPNEHGMCIKPNKAKTEMKELRLLCAEDEQIRTCWMTAFRLLKYGMLLYQNYRIPQRKGLPPPFNAPMRSVSENSLVAMDFSGQIGRVIDNPAEAQSAALEEGHAWRKRSTRMNILSSQSPLHPSTLNAVIHRTQHWFHGRISREESHRIIKQQGLVDGLFLLRDSQSNPKAFVLTLCHHQKIKNFQILPCEDDGQTFFTLDDGNTKFSDLIQLVDFYQLNKGVLPCKLKHHCIRVAL

Source: US6867003
